Measured values: the PETadex activity labels (doi:10.1042/bj20051645)
Positions count from the first letter of the chain named.

B1: unnamed (protein)
chain: MMNFNNVFRWHLPFLFLVLLTFRAAAADTLLILGDSLSAGYRMSASAAWPALLNDKWQSKTSVVNASISGDTSQQGLARLPALLKQHQPRWVLVELGGNDGLRGFQPQQTEQTLRQILQDVKAANAEPLLMQIRLPANYGRRYNEAFSAIYPKLAKEFDVPLLPFFMEEVYLKPQWMQDAGIHPNRDAQPFIADWMAKQLQPLVNHDS
B2: unnamed (protein)
chain: B1 chain with N99A, A180D
B3: unnamed (protein)
chain: B1 chain with A180D
B4: unnamed (protein)
chain: B1 chain with S36A, A180D
B5: unnamed (protein)
chain: B1 chain with G70A, A180D
B6: unnamed (protein)
chain: B1 chain with A180D, H183A

Substrate: p-NP-C4
Details: pH 7; 37 °C

Protein	Km	kcat	kcat/Km
B1	1880 µM	5.98 s⁻¹	3180 M⁻¹ s⁻¹
B2	1660 µM	12 s⁻¹	7220 M⁻¹ s⁻¹
B3	870 µM	15.3 s⁻¹	17600 M⁻¹ s⁻¹
B4	1550 µM	0.16 s⁻¹	103 M⁻¹ s⁻¹
B5	1100 µM	3.16 s⁻¹	2870 M⁻¹ s⁻¹
B6	610 µM	0.0093 s⁻¹	15.2 M⁻¹ s⁻¹
